This is an account of results in patent US20070134657A1, “Methods and compositions relating to gradient exposed cells” (GENERAL HOSPITAL CORPORATION, THE, priority 2002, published 2007).

For one experiment, the system named is T-cell. The note with it: response to SDF-1; cited from earlier work.
The next experiment deals with human neutrophils. Kind of experiment: Effect of signaling pathway inhibitors on directional neutrophil migration in IL-8 gradients (microfluidic device). It counts as cell-based. The note with it: pretreated cells; IL-8 gradients in which chemotaxis and fugetaxis were seen. The text has this:
Microfluidic Migration Assay and Timelapse Microscopy: Neutrophils (1×10^3 cells) were placed uniformly across the migration channel and allowed to migrate under a linear gradient of human Interleukin-8 (72 a.a.; PeproTech, Rocky Hill, N.J.) in IMDM with 0.5% (w/v) FCS flowing at 0.1 mm/sec. […] Brightfield images were taken every 30 seconds using a C4742-95 Hamamatsu digital camera (Hamamatsu, Japan) controlled by IPLab 3.6.1 (Scanalytics, Fairfax, Va.). Cell movement was always observed at a set point along the migration channel. Gradients were also calibrated at this set point. Migration was quantified for all cells across the gradient.
Signaling Pathway Inhibitors: Cells were treated with pertussis toxin (100 ng/mL; 30 minutes at 37° C.), wortmannin (1 μM, 10 μM; 20 minutes at 37° C., 8-Br-cAMP (1 mM; 15 minutes at room temperature), 8-Br-cGMP (1 mM; 15 minutes at room temperature) (Sigma-Aldrich), or the CXCR2 non-peptide antagonist, SB225002 (1 pM, 100 pM, 1 nM, or 1 μM for 15 minutes at 37° C.; Calbiochem, Calif.). Immediately after treatment cells were seeded in migration channel of the microfluidic device and allowed to migrate as described above.
Since receptor occupancy is known to play a role in directional decision making and gradient sensing in the context of chemotaxing eukaryotic cells, it was postulated that chemokine receptor occupancy by a chemokine might also play a critical role in the decision of a cell to move up or down a chemokine gradient. Thus, a SB25002, the specific non-peptide antagonist of the IL-8 receptor, CXCR2 was utilized to examine this postulate. Neutrophils were pretreated with SB225002 at concentrations between 1 pM and 1 μM and then exposed to 0 to 1.2 μM gradients of IL-8 in microfabricated devices as described above. Videos of cell migration were analysed using MetaMorph and MathLab software to generate normalized angular frequencies determined for cells migrating in each of the three sectors of the gradient. The absence of inhibitor generates a normalized angular frequency of 1.0 whereas inhibition of fugetactic or chemotactic angular frequencies results in a normalized frequency of <1.0 and augmentation of either directional response results in a value greater than 1. This analysis allows to precisely quantitate the effect of a given concentration of inhibitor on the directional decision of the cell to move up or down a gradient. […] Furthermore, although IL-8 binds to both CXCR2 and CXCR1 on the cell surface, of the human neutrophil bi-directional signaling was evidently critically dependent on CXCR2.
It had been previously shown that the signaling pathway for chemotaxis is distinct from that for chemorepulsion or fugetaxis. […] The study of neutrophil migration in microfabricated devices allows to examine precisely the effects of these inhibitors on quantitative parameters of cell migration including the directional bias of cells in the context of precisely defined and stable chemokine gradients. Primary human neutrophils were pretreated with known inhibitors of the chemokine signal transduction pathway including pertussis toxin, wortmannin, genistein, 8-Br-cAMP and 8-Br-cGMP and then exposed to IL-8 gradients in which chemotaxis and fugetaxis were seen. The effect of the inhibitor on directional migration towards or away from the chemokine was quantitated by determining the directional motility index of cells migrating in the context of these gradients. Movement vector angles corresponding to movement up the gradient (30 to 150 degrees—see FIG. 13) were defined as chemotactic and measured movement vector angles corresponding to movement down the gradient (210 to 330 degrees—see figure) were defined as fugetactic. The directional choice of cells to move up or down a chemokine gradient were therefore compared in the presence and the absence of an inhibitor. […]

In the next experiment the test system is rat neutrophils. Kind of experiment: Intravital microscopy of rat neutrophil migration in response to diffusive CINC-1 gradients in mesentery. The class given is in vivo. The procedure:
Intravital Microscopy: Male Sprague Dawley rats (200-300 g) were purchased from Harlan-Olac (Bicester, U.K.). Male rats were prepared for intravital microscopy. Briefly, following sedation with i.m. Hypnorm (fentanyl-fluanisone mixture, 0.1 ml; Janssen-Cilag, High Wycombe, U.K.), animals were anesthetized with i.v. sodium pentobarbitone (30 mg/kg loading dose followed by 30 mg/kg/h; Rhône Mérieux, Harlow, U.K). The animals were maintained at 37° C. on a custom-built heated microscope stage. Following midline abdominal incision, the mesentery adjoining the terminal ileum was carefully arranged over a glass window in the microscope stage and pinned in position. The mesentery was kept warm and moist by continuous application of Tyrode's balanced salt solution (Sigma Aldrich). Mesenteric post-capillary venules (15-40 μm in diameter) were viewed on an upright fixed-stage microscope (Axioskop F S, Carl Zeiss, Welwyn Garden City, U.K.) fitted with water immersion objectives. Images were captured with a digital camera (C5810-01, Hamamatsu Photonics U.K., Enfield, U.K.) for viewing on a monitor (PVM-1453 MD, Sony U.K., Weybridge, U.K.) and storage by videocassette recorder (AG-MD830E, Panasonic U.K., Bracknell, U.K.). […] Firmly adherent leukocytes were defined as those that remained stationary for at least 30 s within a 100-μm segment of a venule. Extravasated leukocytes were defined as those in the perivenular tissue adjacent to, but remaining within a distance of 150 μm of a 100-μm length of vessel segment under study. After baseline readings of rolling, adhesion and transmigration were taken; CINC-1 at final concentrations of 10^−9 M, […] or 10^−7M (Peprotech) was applied topically to the mesenteric tissue in the superfusion buffer. Leukocyte responses within the chosen vessels were quantified for up to 180 minutes, during which the topical application of CINC-1 was maintained. In each animal, multiple vessel segments from appropriate vessels were quantified. Videos of migrating cells were constucted for quantitative and mathematical analysis as described above; at the end of certain in vivo experiments, the mesentery was stained with acridine orange (Sigma Aldrich), a nuclear dye, scanned with a 488 nm laser line generated from an Argon laser, and observed by confocal microscopy (LSM5 PASCAL, Axioskop II FS, Carl Zeiss) to verify that migrating cells were neutrophils.
Mathematical Modeling of Continuous Gradients in vivo: The chemokine concentration profile in the mesentery at steady state was predicted using a novel in vivo model based on classical diffusion equations applied on a spherical model of the postcapillary venule, and the assumption that the receptor-dependent transport of the chemokine by the endothelial cells is the main mechanism for generating the gradient the vicinity of postcapillary venules. The steady state solution was calculated for the concentration gradient around a sphere in a homogenous medium, with the two boundary conditions: 1) the concentration far from the sphere is constant, and 2) the chemokine flux across the surface of the sphere also constant. […] Thus, the steady state concentration C at distance r from the capillary wall was calculated as: [formula] […]

Take `O=c1c(-c2ccc(O)cc2)coc2cc(O)cc(O)c12` [genistein]: in the experiment with T-cell, the “sensitivity of T-cell chemotaxis to inhibition, compared with fugetaxis” value is “differentially more sensitive to inhibition”.

As for `Nc1ncnc2c1nc(Br)n2[C@@H]1O[C@@H]2COP(=O)(O)O[C@H]2[C@H]1O` [8-Br-cAMP], in the experiment on human neutrophils, the “effect on neutrophil chemotaxis (angular frequency, movement up the gradient)” value was “augmented” and the “effect on neutrophil fugetaxis (angular frequency, movement down the gradient)” value is “selectively inhibited”. Besides, the “sensitivity of T-cell fugetaxis to inhibition, compared with chemotaxis” value in the experiment on T-cell is listed as “differentially more sensitive to inhibition”.

B1: CINC-1: rat IL-8 orthologue, cytokine induced neutrophil chemoattractant-1, signals via CXCR2 (protein, UniProt P14095 25-96, looked up)
Growth-regulated alpha protein: APVANELRCQCLQTVAGIHFKNIQSLKVMPPGPHCTQTEVIATLKNGREACLDPEAPMVQKIVQKMLKGVPK
Consider B1, for which the “neutrophil response to superfused chemokine” value is “minimal neutrophil adhesion to the luminal surface of the venule and transmigration” in the experiment with rat neutrophils (1 nM); “accumulation of neutrophils around the vessel without transmigration” in the experiment on rat neutrophils (100 nM). The “mean chemotropism index (MCI) in vivo” value is given as “+0.32+/−0.06” in the experiment on rat neutrophils (diffusive gradient with peak concentration of 10 nM) and −0.35+/−0.12 with rat neutrophils (gradient replaced with peak concentration of 100 nM). Also, in the experiment with rat neutrophils (superfusion at 1 nM, 10 nM or 100 nM for 90 minutes), the “peak chemokine concentration at which peak transendothelial migration of neutrophils from the blood occurred” value was 10 nM.
